The text below walks through data of a protein production outcome set (Wang et al. 2014).

This series can be described thus: label from the status in PepcDB records.

As for “EREEEPAVQGNPDESLTVEGALEYVELAPQLNLPQQEEDADFHTVAGLIMEELQTIPDVGDFADFHGWRFEVVEKEGQRIERVKITKLP”, the protein production result is reported as “not failed”.

“ERLETAQDLLELEGITPELAAKLAERQVHTRDDLAELSTDELAEIAGLQEEEASDLIMRARAHWFDEE”: the protein production result was “failed”.

For the sequence “ERLILCSPYFIPDESLLEAVTSACYRGVTVELFVSEQADQFAIDHAQSSYYQALLEAGVKIYQFPKPDVLHTKYMIADPDDTTGNEALGVLGSSNLDIRSFGLNYEISLMIAKGNLIHELNALTDRYRTVSFKLTLDKWNQR”, the protein production entry is “failed”.

“ERRLCAILAADMAGYSRLMERNETDVLNRQKLYRRELIDPAIAQAGGQIVKTTGDGMLARFDTAQAALRCALEIQQAMQQREEDTPRKERIQYRIGINIGDIVLEDGDIFGDAVNVAARLEAISEPGAICVSDIVHQITQDRVSEPFTDLGLQKVKNITRPIRVWQWVPDADRDQSHDPQPSHVQH”: the protein production result is “not failed”.

With “ESICLIGHSLGGDLARYFASEFEEVKKLILLDGGYLDLDKILPLDTELEETKNYIKSQIVSDLDVLTSKEKSEAKHWSENMEKAVRQSYHWNVEYNRYELAINYENIEAILRLRRKIQAFKREVGDTLFISPRYPNEATWREEALKELPDYFDTIFLENFGHELYTQAPKEIASLMNEWL”, the protein production result was “failed”.

Regarding “ESKYIEYKKSRKGLSNDIWSTYSAFANTEGGTIYLGIEEKKIEDKKVFVSVGVEDPEKMIEDFWNALYGRSKVSQNILSNKDVKIVNIENKACIEIHVPEAPYSKKPIYVDNKKDLVYKRVDDADRIATEEEYKFMIVNSQDDIDTELLDNYDMSDLNHESIENYRKLLLKNTNDERYANMSQLDLMIDLGAYRKDRSSKDKQYKMTTACLLFFGKYNAISDRFPGFQLDYFKKTNYLDTDWKDRISSGDLGNEDLNVYSFFEKVLIKLTDNIEESFSLNDGLTRQNYARDLKVAIREALVNTLMHAYYDTKQSIKIVNCEDFIEFYNPGNMRINKEDFIHGGHSKDRNSILSTLFRRVGYSEKAGSGGPRIFDVVNRHKLKTPEIELTDMDTNVVLWKQDLMKEFEKYPELDKKVIKYIIDYGSISKGEALKMENMTEYQFRNILKKLKDDNLIKKEGEGPATKYVL”, the protein production entry is “failed”.

Consider “ESTLVNENVLENIPMGIIVVDINCNITSINDYALNIMDKNIESVIGMPVLDIIPTSDTPLVIKTKEKKLGKTQHINKHIVISNCCPIISNNNVIGALCVFQDIS”, for which the protein production result was “failed”.

For the sequence “EVGVNMAVTPGKVIFQNEIMQLIQYEPATATVQRTPLLIVPPWINKYYILDLKPEKSFIKWCVDQGLTVFVISWVNPDKSLADKDFADYMKLGPLTAMDVVEKVTGEMKVHTLGYCVGGTLLASTLAWLAERRRVRVTSATFLTTQVDFTHAGDLMVFVDEEQISAVEREMKVTGVLEGAKMAMAFNMLRPNDLIWSYVVNNYLKGQPPQAFDLLHWNSDATRMPAANHSYYLRNCYLDNKLSAGTMVLDNTTLDLTKVKVPIYNLATREDHIAPAESVLYGSQFFGGPVKFVLSGSGHI”, the protein production result is “failed”.

Consider “EWQHRGYGRELLAEAERIAREEFDAKKMLIISGVGVREYYRKFGYRKDGPYVSKRLDKRYADYKRTNRFDAELNT”, for which the protein production entry was “failed”.

For “EYSENNAPLFIRAVNSVASTTGAPPWANLVSILEEKNGADPELLVYTVTLINKTLAALPDQDSFYDVTDALEQQGMEALVQRHLGTAGTDVDLRTQLVLYENALKLEDGDI”, the protein production entry is “failed”.

As to “FETRAKGRSGEALRSLLNLGAKDAAIIRDNREVRIPIQSLQVGDVFVVRPGEKIATDGVVVEGTSAVDQSMITGESVPVEVAQGSHVTGATMNTSGRLLVTAQRVGADTTLAAMGRLVAEAQSNKAPVQKLVDKISQ”, the protein production result is “failed”.

For “FFSVSNIGLHARAYKDKLFVHTASLRSGNPYKQVDLLVLDAKGETVLQGATDDNGNALLNYTLNAGHVLVSRNGRDISILPFNQPALDLSEFAVAGRENPWFDVFAWSGRDLYRPGEMLRISALLRDRDGKPVKPQPVFLRLKQPDGKTFRETRLQPAEQGYLEFTQKIPSDAPTGRWRVEFRTDPASKEAVQGLAVRVEEFLPERMKLELSSAQPVLRAKAPFTLTADAAYLYGAPAAGNRFTANLAVAVEQHPLDNMPGWFFGDATL”, the protein production result is reported as “failed”.

“FKVRVGEPGQAGNPALVSAYGTGLEGGTTGIQSEFFINTTRAGPGTLSVTIEGPSKVKMDCQETPEGYKVMYTPMAPGNYLISVKYGGPNHIVGSPFKAKVTGQRLVSPGSANETSSI”: the protein production entry is reported as “not failed”.

As for “FLTEFINYIKKSKVVLLEDLAFQMGLRTQDAINRIQDLLTEGTLTGVIDDRGKFIYITP”, the protein production result was “not failed”.

Regarding “FMPTEKDVKTLQLTMKEYEAKDDWQLYLWKENEDFVGIMGIVKKENQVLEIQHLSVNPSHRHVGIGTKMVQELKSKFLEFTICGNEQTASFCEKC”, the protein production entry is given as “failed”.

On to “FTNHKGNPMQTERFNKILREAAKDVGIDKEVSSHILRHSHISLLSQQGVSLKAIMDRVGHSDHRTTLSIYSHVTEQMDKDMMNKLEQVKLG”, for which the protein production entry is listed as “failed”.

“GAAGPWRLPIGNSVVASSPPVLQANAETWLDFTDLVFIDPVGTGYSRFVASGDEVRKHFYAVEGDISAMAVVIRRWLEKNDRLVSPKYLAGESYGGIRGPKVVDNLQTKQGVGVNGLILVSPVLDFRDLSGSSLLQYAARLPSMTAVARQQKGKVNRADLADVESYARSEFLTDLVKGEADKEATTRLADRVSALTGIDKTVSRRLAGRFDTREFQREFDRDRGRVTGRFDGAKLGLDPFPDSSAAHFGDPSADSLIAPLTSAAVQLTRSTLNWKPDGSYELLNGSVAEQWDFGRGRQPLESTTQLREILSVDPSLQVLVTGGLFDLAAPYFGTQMVLDQLPPTLAEKRVKFVVYPGGHMFYAEDAARQSLHDEVKAMMK”: the protein production result is recorded as “failed”.

Turning to “GAPLQRMLDEIAGHAACPVVVTNLAHRVLATAGERSAVDDVLRDWERIARQAGGSEGAGWVRAELGGRGERWGRIVLCGYRGDAATGRLLADRAAEALVLHRMLGGSAHTWEEQSAQGLLTDLVSGVVPARQLLPRARAAGLPVNRRTFVPLVVRDGEPPVLDRVLRMLGLPGLVAELADGATAVLLSLARDQDAEALSAHFATRLRTESGASGTVVAAADPRTAWDDVPAGLREAQHVADAVAENSAVLDLPAVVRLRDVHLRGLIRLLRDDPYVQSFAERELNGLLCGRDAESDLLPVLRTYLATGRNKSRTAQLHHVSRPALYRRLEAIQARLGVDLDDFEQAASVHIALLAHDAQQ”, the protein production entry is on record as “failed”.

Turning to “GDAHDQQALDYALYHLRIMTPAHGERSSIAAKGLTGEGYKGHVFWDTEVFLLPFHLFSDPTVARSLLRYRWHNLPGAQEKARRNGWQGALFPWESARSGEEETPEFAAINIRTGLRQKVASAQAEHHLVADIAWAVIQYWQTTGDESFIAHEGMALLLETAKFWISRAVRVNDRLEIHDVIGPDEYTEHVNNNAFTSYMVYYNVQQALSIARQFGCSDDAFIHRAEMFLKELRLPEIQPDGVLPQDDSFMTKPAINLAKYKAAAGKQTILLDYSRAEVNEMQILKQADVVMLNYMLPEQFSSASCLANLQFYEPRTIHDSSLSKAIHGIVAARCGLLTQSYQFWREGTEIDLGADPHSCDDGIHAAATGAIWLGAIQGFA”, the protein production entry is reported as “failed”.

In the case of “GDAQAGLVLLHGRGASAQGMLQLADDLDVPDIAHLAPQARMRSWYPQSFMAPRDQNEPELASALATIGDVLGRLADAGIGPARTVLLGFSQGACLATTYAAQTPQRYGGVVGLSGGLIGPDGASFDYEGSLDATPVFLGCSDQDPYIPRARVAETADVLRALNADVTSRIYEGLGHTINDAERQHARSLLRRCVD”, the protein production result is recorded as “failed”.

Take “GEEDWVLPSEVEVLESIYLDELQVIKGNGRTSPWEIYITLHPATAEDQDSQYVCFTLVLQVPAEYPHEVPQISIRNPRGLSDEQIHTILQVLGHVAKAGLGTAMLYELIEKGKEILTDNNIPHGQCVICLYGFQEKEAFTKTPCYHYFHCHCLARY”: the protein production entry is listed as “failed”.

Turning to “GEKTFTQRSRLFVGNLPPDITEEEMRKLFEKYGKAGEVFIHKDKGFGFIRLETRTLAEIAKVELDNMPLRGKQLRVRFACHSASLT”, the protein production entry is “not failed”.
